B1: F-ATPase subunit f (natural protein, bovine, UniProt Q28851 1-88, looked up)
chain: MASVVPLKEKKLLEVKLGELPSWILMRDFTPSGIAGAFQRGYYRYYNKYVNVKKGSIAGLSMVLAAYVFLNYCRSYKELKHERLRKYH
notes: ATP synthase subunit f, mitochondrial, bovine; endogenous supernumerary membrane subunit of the purified F-ATPase; source: purified from bovine mitochondrial membranes as part of the F-ATPase complex
B3: F-ATPase subunit d (natural protein)
chain: not shown
notes: ATP synthase subunit d, mitochondrial, bovine; endogenous subunit of the peripheral stalk of the purified F-ATPase; source: purified from bovine mitochondrial membranes as part of the F-ATPase complex
B5: F-ATPase subunit F6 (natural protein, bovine, UniProt P02721 33-108, looked up)
chain: NKELDPVQKLFVDKIREYRTKRQTSGGPVDAGPEYQQDLDRELFKLKQMYGKADMNTFPNFTFEDPKFEVVEKPQS
notes: ATP synthase coupling factor 6, mitochondrial, bovine; endogenous subunit of the peripheral stalk of the purified F-ATPase; printed length 76 amino acids; source: purified from bovine mitochondrial membranes as part of the F-ATPase complex

Holding throughout (settings): both partners purified
One test deals with T1, F-ATPase subunit g (bovine, UniProt Q28852 1-103).
T1 construct: ATP synthase subunit g, mitochondrial, bovine; endogenous supernumerary membrane subunit of the purified F-ATPase; source: purified from bovine mitochondrial membranes as part of the F-ATPase complex
T1 sequence (looked up): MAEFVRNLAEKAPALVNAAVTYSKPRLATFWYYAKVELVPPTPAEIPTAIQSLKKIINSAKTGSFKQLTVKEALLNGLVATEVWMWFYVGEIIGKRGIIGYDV
Description: cross-linking; purified monomeric bovine F-ATPase reacted with BS^3(d0/d12) at the same concentration and under the same conditions as DSS; tryptic digest, linked lysines identified by mass spectrometry.

For the next test, the target named is T2, F-ATPase α-subunit (bovine, UniProt P19483 44-553).
T2 construct: ATP synthase subunit alpha, mitochondrial, bovine; endogenous subunit of the F1 domain of the purified F-ATPase (three copies in the enzyme); also called subunit α; source: purified from bovine mitochondrial membranes as part of the F-ATPase complex
The test is described as follows: cross-linking; purified monomeric bovine F-ATPase (2 μM, 1.16 mg/ml) in detergent and phospholipids reacted with 2 mM DSS(d0/d12), pH 8.0, 2 h; tryptic digest, cation exchange fractionation, linked lysines identified by mass spectrometry.

In test [1] the target is T3, F-ATPase subunit b (bovine, UniProt P13619 43-256).
T3 construct: ATP synthase subunit b, mitochondrial, bovine; endogenous subunit of the peripheral stalk of the purified F-ATPase; source: purified from bovine mitochondrial membranes as part of the F-ATPase complex
T3 sequence (looked up): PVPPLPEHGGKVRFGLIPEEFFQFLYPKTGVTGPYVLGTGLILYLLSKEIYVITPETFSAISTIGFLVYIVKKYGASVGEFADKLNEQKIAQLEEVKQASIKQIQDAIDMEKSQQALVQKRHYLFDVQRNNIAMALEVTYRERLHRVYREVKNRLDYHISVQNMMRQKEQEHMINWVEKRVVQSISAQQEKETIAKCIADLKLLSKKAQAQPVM
Description: cross-linking; purified monomeric bovine F-ATPase reacted with BS^3(d0/d12) at the same concentration and under the same conditions as DSS; tryptic digest, linked lysines identified by mass spectrometry.

Test [2] has as its target T3, F-ATPase subunit b. The test is described as follows: cross-linking; purified monomeric bovine F-ATPase (2 μM, 1.16 mg/ml) in detergent and phospholipids reacted with 2 mM DSS(d0/d12), pH 8.0, 2 h; tryptic digest, cation exchange fractionation, linked lysines identified by mass spectrometry.
Test [3] addresses B3. The test is described as above.
In the test “F-ATPase subunit F6” the target is B5. The test is described as above.
For test [4], the target named is T3, F-ATPase subunit b. Described as above. The source holds these as a separate data set.
Test [5] concerns the target B3. The description is as above. This is another data set of the same source.
For test [6], the target named is T4, F-ATPase subunit 6.8PL (6.8-kDa proteolipid) (bovine, UniProt P14790 1-60).
T4 construct: 6.8 kDa mitochondrial proteolipid, bovine; endogenous supernumerary membrane subunit of the purified F-ATPase; source: purified from bovine mitochondrial membranes as part of the F-ATPase complex
The test is described as above.

For the test “F-ATPase subunit f”, the target named is B1. The description is as above.

T2 sequence (P19483 44-553): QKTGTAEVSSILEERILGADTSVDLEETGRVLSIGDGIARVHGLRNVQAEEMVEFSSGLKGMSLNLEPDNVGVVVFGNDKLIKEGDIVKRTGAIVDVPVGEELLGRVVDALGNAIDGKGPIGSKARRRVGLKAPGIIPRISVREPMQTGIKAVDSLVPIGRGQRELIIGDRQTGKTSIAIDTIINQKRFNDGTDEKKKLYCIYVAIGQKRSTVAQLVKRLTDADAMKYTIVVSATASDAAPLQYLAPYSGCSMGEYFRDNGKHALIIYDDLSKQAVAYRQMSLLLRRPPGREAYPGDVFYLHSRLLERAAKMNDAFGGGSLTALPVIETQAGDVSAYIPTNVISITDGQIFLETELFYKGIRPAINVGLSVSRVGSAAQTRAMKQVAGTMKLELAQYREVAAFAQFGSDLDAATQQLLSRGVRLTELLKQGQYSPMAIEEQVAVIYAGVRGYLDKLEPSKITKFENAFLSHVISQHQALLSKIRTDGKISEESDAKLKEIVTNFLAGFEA

Regarding B1, in the test with F-ATPase subunit g, the binding result is “binds”.

B2: F-ATPase subunit oscp (natural protein, bovine, UniProt P13621 24-213, looked up)
chain: FAKLVRPPVQIYGIEGRYATALYSAASKQNKLEQVEKELLRVGQILKEPKMAASLLNPYVKRSVKVKSLSDMTAKEKFSPLTSNLINLLAENGRLTNTPAVISAFSTMMSVHRGEVPCTVTTASALDEATLTELKTVLKSFLSKGQVLKLEVKIDPSIMGGMIVRIGEKYVDMSAKTKIQKLSRAMREIL
notes: ATP synthase subunit O (oligomycin sensitivity conferral protein), mitochondrial, bovine; endogenous subunit of the peripheral stalk of the purified F-ATPase; source: purified from bovine mitochondrial membranes as part of the F-ATPase complex
For the molecule B2, the binding result with F-ATPase α-subunit is recorded as “binds”. Take B3: in the test with F-ATPase subunit b [1], the binding result is “binds”.

B4: F-ATPase subunit ATP8 (natural protein, bovine, UniProt P03929 1-66, looked up)
chain: MPQLDTSTWLTMILSMFLTLFIIFQLKVSKHNFYHNPELTPTKMLKQNTPWETKWTKIYLPLLLPL
notes: ATP synthase protein 8 (A6L), encoded in mitochondrial DNA, bovine; endogenous membrane subunit of the purified F-ATPase; C terminus at residue 66 as printed; also called A6L; source: purified from bovine mitochondrial membranes as part of the F-ATPase complex
Regarding B4, the binding result in the test with F-ATPase subunit b [2], with F-ATPase subunit d [3] and with F-ATPase subunit F6 was “binds” throughout. For the molecule B5, the binding result in the test with F-ATPase subunit b [4] and with F-ATPase subunit d [5] was “binds” in each case.

B6: F-ATPase subunit DAPIT (diabetes-associated protein in insulin-sensitive tissues) (natural protein, bovine, UniProt Q3ZBI7 1-58, looked up)
chain: MAGPEADAQFHFTGIKKYFNSYTLTGRMNCVLATYGSIALIVLYFKLRSKKTPAVKAT
notes: DAPIT (diabetes-associated protein in insulin-sensitive tissues), bovine; endogenous supernumerary membrane subunit of the purified F-ATPase; source: purified from bovine mitochondrial membranes as part of the F-ATPase complex
With B6, the binding result in test [6] is “binds”.

B7: F-ATPase subunit e (natural protein, bovine, UniProt Q00361 1-71, looked up)
chain: MVPPVQVSPLIKLGRYSALFLGMAYGAKRYNYLKPRAEEERRLAAEEKKKRDEQKRIERELAEAQEDTILK
notes: ATP synthase subunit e, mitochondrial, bovine; endogenous supernumerary membrane subunit of the purified F-ATPase; source: purified from bovine mitochondrial membranes as part of the F-ATPase complex
Consider B7, for which the binding result in the test with F-ATPase subunit f is “binds”.

For the origin of these results see article PMC4505582 (The Journal of Biological Chemistry, 2015).
